Data taken from the supplement of paper PMC7125110.
± gives the standard error. Variants at the floor of the assay were thinned out.

B1: glmS ribozyme (parent)
chain: AUAAAAGCGCCAGAACUACAGAAAUGUAGUUGACGAGGAGGAGGUUUAUCGAAUUUUCGGCGGAUGCCUCCAAA

How the values were obtained:
Details in all cases: with glucosamine-6-phosphate
[1] = variants of: B1; assay: self-cleavage kobs at 40 uM GlcN6P; higher = faster cleavage; RNA array
Procedure, shortened: (§1)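 Barcoded glmS ribozyme variants on sequenced MiSeq chips were transcribed in situ by E. coli RNA polymerase and tracked through a hybridised Cy3 probe at 37 °C. Glucosamine-6-phosphate (40 μM to 10 mM) in HEPES/KCl/Mg(OAc)2 buffer was flowed in, and tiles were imaged over ~14 h. Signals were normalised to baseline and to non-cleaving reference variants; per-tile medians were fit to one- or two-exponential decays to give kobs. kcat and KM came from weighted Michaelis–Menten fits across concentrations.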

[2] = variants of: B1; assay: self-cleavage kobs at 2500 uM GlcN6P; higher = faster cleavage; RNA array
Procedure, shortened: as §1

[3] = variants of: B1; assay: self-cleavage kobs at 10000 uM GlcN6P; higher = faster cleavage; RNA array
Procedure, shortened: as §1

[4] = variants of: B1; assay: self-cleavage kobs at 640 uM GlcN6P; higher = faster cleavage; RNA array
Procedure, shortened: as §1

[5] = variants of: B1; assay: self-cleavage kobs at 160 uM GlcN6P; higher = faster cleavage; RNA array
Procedure, shortened: as §1

Variant	self-cleavage kobs at 40 uM GlcN6P [1]	self-cleavage kobs at 2500 uM GlcN6P [2]	self-cleavage kobs at 10000 uM GlcN6P [3]	self-cleavage kobs at 640 uM GlcN6P [4]	self-cleavage kobs at 160 uM GlcN6P [5]
AUAAAAGCGCUAAAACUACAGAAAUGUAGUUGACGAGGAGGAGGUUUAUCGAAUUUUCGGCGGAUGCCUCCAAA [C11U G13A]	< 1e-05 s⁻¹	3.03e-05 ± 1.4e-05 s⁻¹	6.97e-05 ± 1.7e-05 s⁻¹	–	–
AUAAAAGCGCCAGAACUACAGAAAUGUAGUUGACGAUGACGAGGUUUAUCGAAUUUUCGGCGGUUGCCUCCAAA [G37U G40C A64U]	< 1e-05 s⁻¹	–	< 1e-05 s⁻¹	–	–
AUAAAAGCGCCAGAACUACAGAAAUGUAGUUGACGAGGAGGAGGUUUAUCGAGUUUUCGGCGGACGCCUCCAAA [A53G U65C]	3.6e-05 ± 1.8e-05 s⁻¹	0.000224 ± 9.5e-05 s⁻¹	0.000644 ± 0.00014 s⁻¹	0.000302 ± 7.9e-05 s⁻¹	–
AUAAAAGCGCCAUAACUACAGAAAUGUAGUUGACGAGGAGGAGGUUUGUCGAAUUUUCGGCGGACGCCGCCAAA [G13U A48G U65C U69G]	< 1e-05 s⁻¹	–	–	–	–
AUAAAAGCGCCAGAACUACAGAAAUGUAGUUGACGAGGAGGAGGUUUACCGAAUUUUCGGCGGAUACCUCCAAA [U49C G66A]	< 1e-05 s⁻¹	–	< 1e-05 s⁻¹	–	–
AUAAAAAGCGCCAGAACACAGAAAUGUAGUAGACGAGGAGGAGGUUUAUCGAAUUUUCGGCGGAUGCCUCCAAA [G7A C8G G9C C10G A12C G13A A14G C16A U17C U31A]	0.000115 ± 4.2e-05 s⁻¹	–	0.00555 ± 0.0017 s⁻¹	–	–
AUAAAAGCGCCAGAACUACAGAAAUGUAGUUUACGAUGGGGAGGUUUAUCGAAUUUUCGGCGGAUGCCUCCAAA [G32U G37U A39G]	< 1e-05 s⁻¹	< 1e-05 s⁻¹	–	–	–
AUAAAAGCGCAAGAACUACAGAAAUGUAGUUGAUGAGGAGGAGGUUUAUCGAAUUUUCGGCGCAUGCCUCCAAA [C11A C34U G63C]	< 1e-05 s⁻¹	< 1e-05 s⁻¹	–	< 1e-05 s⁻¹	–
AUAAAAGCUCCAGAACUACAGAAAUGUAGUUGACGAGGAGGAGGUUUAGCGAAUUUUCGGCGGAUGCCUCCAAA [G9U U49G]	< 1e-05 s⁻¹	–	< 1e-05 s⁻¹	< 1e-05 s⁻¹	< 1e-05 s⁻¹
AUAAAAGCGCCAGAGCUACAGAAAUGUAGUUGACGAGGAGGAGGUUUAUCGAAUUUUCGGCGGUUGCUUCCAAA [A15G A64U C68U]	< 1e-05 s⁻¹	–	–	–	–
AUAAAAGCGACAGAUUUACAGAAAUGUAGUUGAUGAGGAGGAGGUUUAUCGAAUUUUCGGCGGAUGCCUCCAAA [C10A A15U C16U C34U]	< 1e-05 s⁻¹	–	–	–	–
AUAAAAGUGCCAGAACUACAGAAAUGUAGUUGACGAGGAGGAGCUUUAUCGUAUUUUCGGAGGAUGCCUCCAAA [C8U G44C A52U C61A]	< 1e-05 s⁻¹	< 1e-05 s⁻¹	< 1e-05 s⁻¹	–	–
AUAAAAGCGCCAGAACUACAGAAAUGUAGUUGACGAGGAGGAGGUUUACCGAAUUUUCAGCGGAUGGCUCCAAA [U49C G59A C67G]	< 1e-05 s⁻¹	–	< 1e-05 s⁻¹	< 1e-05 s⁻¹	< 1e-05 s⁻¹
AUAAAAGCGCAAGAACUACAGAAAUGUAGUUGACGAGGAGGAGUUUUAUCGAAUUUUCUGCGGAUGACUCCAAA [C11A G44U G59U C67A]	0.000322 ± 8.1e-05 s⁻¹	–	0.00946 ± 0.002 s⁻¹	–	–
AUAAAAGCGCCAGAACUACAGAAAUGUAUUUGACGAGGAGGAGGUUUAUCGUAUUUUCGGCGGAAGCCUCCAAA [G29U A52U U65A]	< 1e-05 s⁻¹	–	–	–	–
AUAAAAGCGCUAAAACUACAGAAAUGUAGUUGCCGAGGAGGAGGUUUAUCGAUUUUUCGGCGGAUGCCUCCAAA [C11U G13A A33C A53U]	< 1e-05 s⁻¹	–	–	–	–
AUAAAAGCGCCAGAACUACAGAAAUGUAGUUGACGAGGAGGAGGUUUUUCGAAUUUUCGGUGGAUGCCUCCAAA [A48U C61U]	< 1e-05 s⁻¹	–	–	< 1e-05 s⁻¹	–

Variant	self-cleavage kobs at 40 uM GlcN6P [1]	self-cleavage kobs at 2500 uM GlcN6P [2]	self-cleavage kobs at 10000 uM GlcN6P [3]	self-cleavage kobs at 640 uM GlcN6P [4]	self-cleavage kobs at 160 uM GlcN6P [5]
AUAAAAGCGCCAGAACUACAGAAAUGUAGUUGACGAGGAGGAGGUUUAGCGAAUUUUCGGUGGAUGCCUCCAAA [U49G C61U]	< 1e-05 s⁻¹	–	–	–	< 1e-05 s⁻¹
AUAAAAGCGCCAGAACUACAGAAAUGUAGUUCACGAGGAGGAGGUUUAUCAAAUUUUCGGCGGAUACCUCCAAA [G32C G51A G66A]	< 1e-05 s⁻¹	< 1e-05 s⁻¹	< 1e-05 s⁻¹	< 1e-05 s⁻¹	–
AUAAAUGCGACAGAACUACAGAAAUGUAGUUGACGAGGAAGAGGUGUAUCGAAUUUUCGGCGGAUGCCUCCAAA [A6U C10A G40A U46G]	< 1e-05 s⁻¹	–	< 1e-05 s⁻¹	–	–
AUAAAAGCGCCAGAACUACAGAAAUGUAGUUGACGAGGAGGAUGUUAAUCGAAUUUUCGGCGGAUGCCUCCAAA [G43U U47A]	< 1e-05 s⁻¹	–	–	–	–
AUAAAAACGCCAGAACUACAGAAAUGUAGUUGACGAGGAGGAGGUUUAUCGAAUCUUCGGCGGAUGCCUCCAAA [G7A U55C]	< 1e-05 s⁻¹	–	–	< 1e-05 s⁻¹	< 1e-05 s⁻¹
AUAAAAGCGUCAGAACUACAGAAAUGUAGUUGACGCGGAGGAGGUUUAUCGAAUUCUCGGCGGAUGCCUCCAAA [C10U A36C U56C]	< 1e-05 s⁻¹	–	–	–	–
AUAAAAUCGCCAGAACUACAGAAAUGUAGUUGACGAGGAGGAGGUUUAUCGAAUUUUCGGCGGAUGCCUGGAAA [G7U C70G C71G]	4.02e-05 ± 2e-05 s⁻¹	–	–	0.000251 ± 8.1e-05 s⁻¹	–
AUAAAAGCGCCAGAACUACAGAAAUGUAGGGGACGAGGAGGAGGUGUAUCGAAUAUUCGGCGGAUGCCUCCAAA [U30G U31G U46G U55A]	0.000118 ± 3.3e-05 s⁻¹	–	0.00358 ± 0.00067 s⁻¹	–	–
AUAAAAGCGCCAGAACUACAGAAAUGUAGAUGACGAGGAGGAGGUUUAUCGAAUUUUCGUCGGAUGCCUCUAAA [U30A G60U C71U]	< 1e-05 s⁻¹	–	< 1e-05 s⁻¹	–	–
AUAAAAGCGCCAGAACUACAGAAAUGUAUUUGACGAGGACGAGGUUUAUCGGAUUUUCGGCGGAUGCCUCCAAA [G29U G40C A52G]	< 1e-05 s⁻¹	–	–	–	–
AUAAAAGCGCCAGGACUACAGAAAUGUAGUUGACGUGGAGGAGGUUUUUCGAAUUUUCGGCGGAUGCCUCCAAA [A14G A36U A48U]	< 1e-05 s⁻¹	–	–	–	–
AUAAAAGCGCCAGAACUACAGAAAUGUAGUUGACUAGGAGGAGGUUUAUCGAAUUUUCGGUGGAGGCCUCCAAA [G35U C61U U65G]	< 1e-05 s⁻¹	–	–	–	–
AUAAAAGCGCCCGAACUACAGAAAUGUAGUUGACGAGGAGGAGGUUUAUCUAAUUUUCGGCGGAUGCCUCCAAA [A12C G51U]	< 1e-05 s⁻¹	–	–	< 1e-05 s⁻¹	–
AUAAAAGCGUCUGAACUACAGAAAUGUAGUUGUCGAGGAGGAGGUUUAUCGAGUUUUUGGCGGAUGCCGCCAAA [C10U A12U A33U A53G C58U U69G]	9.07e-05 ± 2.5e-05 s⁻¹	0.000132 ± 4.1e-05 s⁻¹	6.22e-05 ± 1.8e-05 s⁻¹	0.000216 ± 5.1e-05 s⁻¹	0.000159 ± 3.3e-05 s⁻¹
AUAAAACCGCCAGAACUACAGAAAUGUAGUUGACGAGGAGGAGGUUUAUCGAAUUGUCGGCGGAUGCCUCCAAA [G7C U56G]	< 1e-05 s⁻¹	< 1e-05 s⁻¹	< 1e-05 s⁻¹	< 1e-05 s⁻¹	< 1e-05 s⁻¹
AUAAACCCGCGAGAACUACAGAAAUGUAGUUGACGAGGAGGAGGUUUAUCGAAUGUUCGGCGGAUGCCUCCAAA [A6C G7C C11G U55G]	< 1e-05 s⁻¹	–	< 1e-05 s⁻¹	–	–
AUAAAAGCACCAGAACUACAGAAAUGUAGUUGACGAGGAGGCGGUUUAUCGAAUUUUCGGCGGAUGCCUCGAAA [G9A A42C C71G]	< 1e-05 s⁻¹	–	–	–	–
